A word on the stoichiometry N: it is a count of units in the complex or per binding partner.

Bounds are passed on as bounds.

In data set [1] the target is Myo4/2p (Myo4 motor - Myo2 IQ + C-tail) (S. cerevisiae) (UniProt P32492). Description: cross-linking.
Data set [2] deals with Myo4p-GFP (S. cerevisiae) (UniProt P32492). Description: single-molecule fluorescence intensity and photobleaching.
The data set “cross-linking” deals with the molecule itself. Description: cross-linking.
Data set [3] concerns the molecule itself. Briefly: single-molecule fluorescence intensity and photobleaching.

Regarding “Myo4/2p (Myo4 motor - Myo2 IQ + C-tail) (from UniProt P32492 1-778; P19524 783-1574)”, in data set [1], the stoichiometry N was found to be 2.

In data set [2], “Myo4p-GFP (from UniProt P32492 1-1471) (natural protein)” showed a stoichiometry N of more than 3.

B1: Myo2p (TEV-eluted and actin affinity purified from Myo2p-1/2TAP) (natural protein, S. cerevisiae, UniProt P19524 1-1574, looked up)
chain: MSFEVGTRCWYPHKELGWIGAEVIKNEFNDGKYHLELQLEDDEIVSVDTKDLNNDKDQSLPLLRNPPILEATEDLTSLSYLNEPAVLHAIKQRYSQLNIYTYSGIVLIATNPFDRVDQLYTQDMIQAYAGKRRGELEPHLFAIAEEAYRLMKNDKQNQTIVVSGESGAGKTVSAKYIMRYFASVEEENSATVQHQVEMSETEQKILATNPIMEAFGNAKTTRNDNSSRFGKYLEILFDKDTSIIGARIRTYLLERSRLVYQPPIERNYHIFYQLMAGLPAQTKEELHLTDASDYFYMNQGGDTKINGIDDAKEYKITVDALTLVGITKETQHQIFKILAALLHIGNIEIKKTRNDASLSADEPNLKLACELLGIDAYNFAKWVTKKQIITRSEKIVSNLNYSQALVAKDSVAKFIYSALFDWLVENINTVLCNPAVNDQISSFIGVLDIYGFEHFEKNSFEQFCINYANEKLQQEFNQHVFKLEQEEYVKEEIEWSFIEFNDNQPCIDLIENKLGILSLLDEESRLPAGSDESWTQKLYQTLDKSPTNKVFSKPRFGQTKFIVSHYALDVAYDVEGFIEKNRDTVSDGHLEVLKASTNETLINILEGLEKAAKKLEEAKKLELEQAGSKKPGPIRTVNRKPTLGSMFKQSLIELMNTINSTNVHYIRCIKPNADKEAWQFDNLMVLSQLRACGVLETIRISCAGFPSRWTFEEFVLRYYILIPHEQWDLIFKKKETTEEDIISVVKMILDATVKDKSKYQIGNTKIFFKAGMLAYLEKLRSNKMHNSIVMIQKKIRAKYYRKQYLQISQAIKYLQNNIKGFIIRQRVNDEMKVNCATLLQAAYRGHSIRANVFSVLRTITNLQKKIRKELKQRQLKQEHEYNAAVTIQSKVRTFEPRSRFLRTKKDTVVVQSLIRRRAAQRKLKQLKADAKSVNHLKEVSYKLENKVIELTQNLASKVKENKEMTERIKELQVQVEESAKLQETLENMKKEHLIDIDNQKSKDMELQKTIENNLQSTEQTLKDAQLELEDMVKQHDELKEESKKQLEELEQTKKTLVEYQTLNGDLQNEVKSLKEEIARLQTAMSLGTVTTSVLPQTPLKDVMGGGASNFNNMMLENSDLSPNDLNLKSRSTPSSGNNHIDSLSVDRENGVNATQINEELYRLLEDTEILNQEITEGLLKGFEVPDAGVAIQLSKRDVVYPARILIIVLSEMWRFGLTKQSESFLAQVLTTIQKVVTQLKGNDLIPSGVFWLANVRELYSFVVFALNSILTEETFKNGMTDEEYKEYVSLVTELKDDFEALSYNIYNIWLKKLQKQLQKKAINAVVISESLPGFSAGETSGFLNKIFANTEEYTMDDILTFFNSIYWCMKSFHIENEVFHAVVTTLLNYVDAICFNELIMKRNFLSWKRGLQLNYNVTRLEEWCKTHGLTDGTECLQHLIQTAKLLQVRKYTIEDIDILRGICYSLTPAQLQKLISQYQVADYESPIPQEILRYVADIVKKEAALSSSGNDSKGHEHSSSIFITPETGPFTDPFSLIKTRKFDQVEAYIPAWLSLPSTKRIVDLVAQQVVQDGH
On to B1, for which the “stoichiometry N” value in “cross-linking” is 2.

B2: Myo2p-GFP (natural protein, S. cerevisiae, UniProt P19524 1-1574, looked up)
chain: MSFEVGTRCWYPHKELGWIGAEVIKNEFNDGKYHLELQLEDDEIVSVDTKDLNNDKDQSLPLLRNPPILEATEDLTSLSYLNEPAVLHAIKQRYSQLNIYTYSGIVLIATNPFDRVDQLYTQDMIQAYAGKRRGELEPHLFAIAEEAYRLMKNDKQNQTIVVSGESGAGKTVSAKYIMRYFASVEEENSATVQHQVEMSETEQKILATNPIMEAFGNAKTTRNDNSSRFGKYLEILFDKDTSIIGARIRTYLLERSRLVYQPPIERNYHIFYQLMAGLPAQTKEELHLTDASDYFYMNQGGDTKINGIDDAKEYKITVDALTLVGITKETQHQIFKILAALLHIGNIEIKKTRNDASLSADEPNLKLACELLGIDAYNFAKWVTKKQIITRSEKIVSNLNYSQALVAKDSVAKFIYSALFDWLVENINTVLCNPAVNDQISSFIGVLDIYGFEHFEKNSFEQFCINYANEKLQQEFNQHVFKLEQEEYVKEEIEWSFIEFNDNQPCIDLIENKLGILSLLDEESRLPAGSDESWTQKLYQTLDKSPTNKVFSKPRFGQTKFIVSHYALDVAYDVEGFIEKNRDTVSDGHLEVLKASTNETLINILEGLEKAAKKLEEAKKLELEQAGSKKPGPIRTVNRKPTLGSMFKQSLIELMNTINSTNVHYIRCIKPNADKEAWQFDNLMVLSQLRACGVLETIRISCAGFPSRWTFEEFVLRYYILIPHEQWDLIFKKKETTEEDIISVVKMILDATVKDKSKYQIGNTKIFFKAGMLAYLEKLRSNKMHNSIVMIQKKIRAKYYRKQYLQISQAIKYLQNNIKGFIIRQRVNDEMKVNCATLLQAAYRGHSIRANVFSVLRTITNLQKKIRKELKQRQLKQEHEYNAAVTIQSKVRTFEPRSRFLRTKKDTVVVQSLIRRRAAQRKLKQLKADAKSVNHLKEVSYKLENKVIELTQNLASKVKENKEMTERIKELQVQVEESAKLQETLENMKKEHLIDIDNQKSKDMELQKTIENNLQSTEQTLKDAQLELEDMVKQHDELKEESKKQLEELEQTKKTLVEYQTLNGDLQNEVKSLKEEIARLQTAMSLGTVTTSVLPQTPLKDVMGGGASNFNNMMLENSDLSPNDLNLKSRSTPSSGNNHIDSLSVDRENGVNATQINEELYRLLEDTEILNQEITEGLLKGFEVPDAGVAIQLSKRDVVYPARILIIVLSEMWRFGLTKQSESFLAQVLTTIQKVVTQLKGNDLIPSGVFWLANVRELYSFVVFALNSILTEETFKNGMTDEEYKEYVSLVTELKDDFEALSYNIYNIWLKKLQKQLQKKAINAVVISESLPGFSAGETSGFLNKIFANTEEYTMDDILTFFNSIYWCMKSFHIENEVFHAVVTTLLNYVDAICFNELIMKRNFLSWKRGLQLNYNVTRLEEWCKTHGLTDGTECLQHLIQTAKLLQVRKYTIEDIDILRGICYSLTPAQLQKLISQYQVADYESPIPQEILRYVADIVKKEAALSSSGNDSKGHEHSSSIFITPETGPFTDPFSLIKTRKFDQVEAYIPAWLSLPSTKRIVDLVAQQVVQDGH
In the case of B2, in data set [3], the “stoichiometry N” value was found to be 2.

The record behind these values is paper PMC2064653 (The Journal of Cell Biology, 2007).
